Source: US8013137B2, “Modified enteropeptidase protein” (National University Corporation Hokkaido University, priority 2006, dated 2011)
Changes are numbered by the printed parent chain. In names and notes the source's numbering stands.

Key:
[1] = Enzyme stability, residual activity using GD4K-βNA; format: physicochemical
Method: […] Aliquots of the reaction mixtures were taken at the indicated times for an activity assay using GD4K-βNA (SEQ ID NO: 6) as a substrate. The enzyme activities relative to that at 0-time are shown.
[…] The enzyme activity was measured at various time points (0 to 96 h) using GD4K-βNA (SEQ ID NO: 6) as a substrate.

[2] = system: recombinant Medaka trypsinogen; assay: Activation of recombinant Medaka trypsinogen, SDS-PAGE; format: biochemical; conditions: 37° C., 15, 30 and 45 min
[3] = system: D4K-cleavage site-containing control protein; assay: Cleavage of D4K-cleavage site-containing control protein (Novagen); format: biochemical; conditions: 37° C., 1 h, 100 ng EP
Method: (§1) (A) Active recombinant EP proteases were assayed using a GD4K-βNA (SEQ ID NO: 6) substrate as a substrate. Bovine (Nvg), bovine EP protease available from Novagen; Bovine (Neb), bovine EP protease available from NEB. (B) Active recombinant EP proteases were assayed using various synthetic peptide substrates. (C) Active EP proteases were analyzed by gelatin zymography. (D) Fibronectin (4 μg) was incubated with active EPs (100 ng) at 37° C. for 12 h. (E) Laminin ((10 μg) was incubated with active recombinant EPs (100 ng) at 37° C. for 12 h. (F) Two μg of the control protein containing the D4K site (SEQ ID NO: 1) was incubated with active recombinant EPs (100 ng) at 37° C. for 1 h.
(§2) The effect of Medaka EP serine protease on various fusion proteins containing a D4K-cleavage site (SEQ ID NO: 1) was examined. […]

GD4K-βNA = assay: EP activity and kinetic study with specific substrate GD4K-βNA; format: biochemical; conditions: for Km / kcat: substrate GD4K-βna
Method: as §1
(A) The purity of purified recombinant Medaka EP-1 and EP-2 protease was assessed by SDS-PAGE. Lane 1, Medaka EP fusion protein; lane 2, Medaka EP protease treated with immobilized trypsin; lane 3, Medaka EP protease purified using a resource Q column. (B) The enzyme activities of EP proteases were determined at various pHs using GD4K-βNA (SEQ ID NO: 6) as a substrate. (C) Recombinant Medaka trypsinogen was incubated at 37° C. with EPs for 15, 30 and 45 min. After incubation, samples were analyzed by SDS-PAGE and visualized by CBB staining (upper panel). The relative amount of the active form of Medaka trypsin at each time point were calculated based on the results shown in the upper panel (lower panel). The results are presented as the means (±SD) of three separate experiments.
(§3) EP activity was routinely determined using the specific substrate Gly-Asp-Asp-Asp-Asp-Lys-β-naphthylamide (GD4K-βNA) (SEQ ID NO: 6) (Sigma) according to the method of Mikhailova and Rumsh (Mikhailova et al., FEBS Lett., 442:226-230 (1999)). Enzyme activity for various 4-methylcoumaryl-7-amide (MCA)-containing peptide substrates was determined by the method of Barrett (Barrett et al., J., Biochem. J., 187:909-912 (1980)). For kinetic studies, initial velocities, extrapolated from the plot of product versus time, were transformed into double-reciprocal plots (Lineweaver et al., J. Am. Chem. Soc., 56:658-663 (1934)). The maximum velocities (Vmax) and Km and kcat values were obtained from the intercepts of these plots. For all experiments, the results of at least three separate determinations are shown.

gelatin = assay: Gelatin zymography; format: biochemical; conditions: FIG. 2C
Method: as §1, §2

[4] = system: Boc-Glu(OBzl)-Ala-Arg-MCA, Z-Phe-Arg-MCA, and Pro-Phe-Arg-MCA; assay: Amidolytic activity for synthetic MCA-containing peptide substrates (panel); format: biochemical; conditions: FIG. 2B
mouse laminin = assay: Hydrolysis of laminin, SDS-PAGE; format: biochemical; conditions: 37° C., 12 h, 100 ng EP
Method: as §1, §2

Pro-Phe-Arg-MCA = assay: Activity assay of EP proteases and EP-treated hK8 samples with Pro-Phe-Arg-MCA (FIG. 4B middle); format: biochemical
Method: (§4) (A) A recombinant fusion protein of Medaka gelatinase A (5 μg) was separately incubated with active EP proteases (100 ng) at 37° C. for 1 h, and analyzed by SDS-PAGE. (B) A recombinant fusion protein of human kallikrein 8 (hK8) (5 μg) was incubated with active EP proteases (100 ng) at 37° C. for 2 h. After incubation, the samples were analyzed by SDS-PAGE (upper panel), or assayed for activity with Pro-Phe-Arg-MCA (middle panel), or Boc-Glu(OBzl)-Ala-Arg-MCA (lower panel). […] The samples were then analyzed by SDS-PAGE/Western blotting using anti-human tPA antibody (upper panel) or anti-His probe antibody (lower panel). The position of sctPA (58- and 61-kDa) detected with the antibodies is shown.
as §3
Next, a 35.5-kDa protein of human kallikrein 8 (hK8) in the same E. coli expression system was synthesized. Digestion with Medaka wild-type and mutant EP proteases generated 31.5-kDa active hK8 by cleaving the D4K sequence (SEQ ID NO: 1) (FIG. 4B, Top). […] The EP protease-treated samples were directly assayed for hK8 activity using Pro-Phe-Arg-MCA, a good synthetic peptide substrate of hK8 (Rajapakse et al., FEBS Lett., 579:6879-6884 (2005)). […] The substrate Boc-Glu(OBzl)-Ala-Arg-MCA, which is slightly cleaved by active hK8, was rapidly hydrolyzed with the samples treated with mammalian, but not Medaka, EP proteases (FIG. 4B, Bottom).

Human plasma fibronectin = assay: Hydrolysis of fibronectin, SDS-PAGE; format: biochemical; conditions: 37° C., 12 h, 100 ng EP
Method: as §1, §2

[5] = system: human high-molecular-weight (HMW) kininogen; assay: Hydrolysis of HMW kininogen, SDS-PAGE; format: biochemical; conditions: 37° C., 2 h, 100 ng EP
Method: (§5) (A) The specific activities of wild-type (EP-1) and mutant EP protease were determined using synthetic peptide substrates. (B) High-molecular-weight (HMW) kininogen (5 μg) was incubated with active EP proteases (100 ng) at 37° C. for 2 h and analyzed by SDS-PAGE. (C) Fibrinogen (10 μg) was incubated with active EP proteases (100 ng) at 37° C. for 12 h and analyzed by SDS-PAGE.
(§6) The effect of Medaka EP serine protease on various fusion proteins containing a D4K-cleavage site (SEQ ID NO: 1) was examined. Human plasma fibronectin (Chemicon, Temecula, Calif.), human fibrinogen (Merk Biosciences, Tokyo, Japan), human high-molecular-weight (HMW) kininogen (Calbiochem, La Jolla, Calif.), mouse laminin (Biomedical Technologies Inc., Stoughton, Mass.), D4K-cleavage site-containing (SEQ ID NO: 1) control protein (Novagen), Medaka gelatinase A (Ogiwara et al., Proc. Natl. Acad. Sci. USA, 102:8442-8447 (2005)) and trypsinogen (this study), human kallikrein 8 (hK8) (Rajapakse et al., FEBS Lett., 579:6879-6884 (2005)) and human tissue-type plasminogen activator (tPA) were incubated at 37° C. in 20 mM Tris.HCl buffer (pH 7.4) containing 50 mM NaCl and 2 mM CaCl2 with various EP serine proteases at ratios (w/w) ranging from 20:1 to 100:1. After incubation, samples were subjected to SDS-PAGE followed by Coomassie Brilliant Blue staining. […]

[6] = system: GD4K-βNA and the three MCA-containing substrates; assay: Specific activities of wild-type and mutant EP protease using synthetic peptide substrates (FIG. 3A); format: biochemical
Method: as §5, §3

human fibrinogen = assay: Hydrolysis of fibrinogen, SDS-PAGE; format: biochemical; conditions: 37° C., 12 h, 100 ng EP
Method: as §5, §6

[7] = system: human single-chain tPA fusion protein; assay: Cleavage of human single-chain tPA fusion protein, Western blotting; format: biochemical; conditions: 37° C., 1 h, 100 ng EP
[8] = system: recombinant fusion protein of human kallikrein 8 (hK8); assay: Cleavage of recombinant fusion protein of human kallikrein 8 (hK8); format: biochemical; conditions: 37° C., 2 h, 100 ng EP
Method: as §4, §2

[9] = system: recombinant fusion protein of Medaka gelatinase A; assay: Cleavage of recombinant fusion protein of Medaka gelatinase A; format: biochemical; conditions: 37° C., 1 h, 100 ng EP
medaka EP-2 protease = assay: Inhibitor assay, enzyme activity measured using GD4K-βNA as a substrate; format: biochemical, medaka (Oryzias latipes); conditions: inhibitor 0.1 mg/ml; GD4K-βNA substrate; 10 min preincubation
medaka EP-1 protease = assay: as above; format: biochemical, medaka (Oryzias latipes); conditions: inhibitor 0.1 mg/ml; GD4K-βNA substrate; 10 min preincubation

B1: EP-1: recombinant serine protease domain of Medaka (Oryzias latipes) enteropeptidase-1, wild type, SEQ ID NO: 2 (protein)
chain: VVGGVNAEKGAWPWMVSLHWRGRHGCGASLIGRDWLLTAAHCVYGKNTHLQYWSAVLGLHAQSSMNSQEVQIRQVDRIIINKNYNRRTKEADIAMMHLQQPVNFTEWVLPVCLASEDQHFPAGRRCFIAGWGRDAEGGSLPDILQEAEVPLVDQDECQRLLPEYTFTSSMLCAGYPEGGVDSCQGDSGGPLMCLEDARWTLIGVTSFGVGCGRPERPGAYARVSAFTSWIAETRRSSFSDLD
modifications: Oryzias latipes
With B1 the “stability of enzyme activity on storage” value ([1]; 4° C.) was “the initial enzyme activity was retained at both temperatures for at least six months”, the “loss of enzyme activity” value ([1]; 37° C., neutral pH, after 4 days of incubation) was “about 30%” and the “stability of enzyme activity on storage” value ([1]; −20° C.) was “the initial enzyme activity was retained at both temperatures for at least six months”. For the same molecule, the “conversion of recombinant Medaka trypsinogen to active trypsin” value [2] was “converted to active trypsin by EP-1 faster than by EP-2”, the “cleavage of fusion protein containing an EP-cleavage site (Novagen)” value [3] was “specifically cleaved the fusion protein to generate two polypeptides having expected molecular masses of 16- and 32-kDa” and the “rate of GD4K-βNA cleavage compared with porcine and bovine enzymes” value (GD4K-βNA; FIG. 2A) was “at a rate comparable to those of the porcine and bovine enzymes”. The “activity for GD4K-βNA relative to EP-2” value (GD4K-βNA; FIG. 8B) was “approximately three times more active than EP-2”, the “pH of maximal activity for GD4K-βNA” value (GD4K-βNA; serine protease domain, FIG. 8B) was 8 and the Km (GD4K-βNA) was 700 µM. The kcat (GD4K-βNA) was 15.7 s⁻¹, the hydrolysis of gelatin (gelatin) was “Little or no hydrolysis” and the “amidolytic activities for synthetic MCA-containing peptide substrates compared with mammalian EP proteases” value [4] was “much lower than those of the EP proteases of mammalian origin”. The hydrolysis of laminin (mouse laminin) was “Little or no hydrolysis”, the “enzyme activity of the EP protease itself with Pro-Phe-Arg-MCA” value (“enzyme activity … with Pro-Phe-Arg-MCA” below) (Pro-Phe-Arg-MCA) was “none of the Medaka EP proteases (wild-type EP-1, K63R, E173A, or E193A) showed any significant enzyme activity” and the hydrolysis of fibronectin (Human plasma fibronectin) was “Little or no hydrolysis”.

B2: E173A: EP-1 with E173A mutation, SEQ ID NO: 4 (protein)
chain: B1 chain with E156A
modifications: Oryzias latipes
With B2 the “nonspecific proteolytic activity for human HMW kininogen” value [5] was “retained a low nonspecific proteolytic activity”, the “enzyme activity for synthetic peptide substrates compared with the wild-type enzyme” value [6] was “significantly lower activities than the wild-type enzyme toward all the synthetic substrates tested” and the Km (GD4K-βNA) was 300 µM. The kcat (GD4K-βNA) was 5.33 s⁻¹, the “nonspecific proteolytic activity for human fibrinogen” value (human fibrinogen) was “retained a low nonspecific proteolytic activity” and the “enzyme activity … with Pro-Phe-Arg-MCA” value (Pro-Phe-Arg-MCA) was “none of the Medaka EP proteases (wild-type EP-1, K63R, E173A, or E193A) showed any significant enzyme activity”. For the same molecule, the “cleavage of human single-chain tPA fusion protein” value [7] was “no serious reduction of the D4K (SEQ ID NO: 1) cleaving activity”, the “cleavage of hK8 fusion protein” value [8] was “no serious reduction of the D4K (SEQ ID NO: 1) cleaving activity” and the “cleavage of Medaka gelatinase A fusion protein” value [9] was “no serious reduction of the D4K (SEQ ID NO: 1) cleaving activity”.

B3: Porcine: active recombinant enzyme of the porcine EP serine protease domain (Ile800 to His1034) (protein)
chain: IVGGNDSREGAWPWVVALYYNGQLLCGASLVSRDWLVSAAHCVYGRNLEPSKWKAILGLHMTSNLTSPQIVTRLIDEIVINPHYNRRRKDSDIAMMHLEFKVNYTDYIQPICLPEENQVFPPGRICSIAGWGKVIYQGSPADILQEADVPLLSNEKCQQQMPEYNITENMMCAGYEEGGIDSCQGDSGGPLMCLENNRWLLAGVTSFGYQCALPNRPGVYARVPKFTEWIQSFLH
For B3, the Km (GD4K-βNA) was 400 µM, the kcat (GD4K-βNA) was 8.83 s⁻¹ and the “enzyme activity … with Pro-Phe-Arg-MCA” value (Pro-Phe-Arg-MCA) was “considerable enzyme activities were detected”. The “cleavage of hK8 fusion protein” value [8] was “extensively degraded the substrate”.

B4: SBTI (protein)
chain: DFVLDNEGNPLENGGTYYILSDITAFGGIRAAPTGNERCPLTVVQSRNELDKGIGTIISSPYRIRFIAEGHPLSLKFDSFAVIMLCVGIPTEWSVVEDLPEGPAVKIGENKDAMDGWFRLERVSDDEFNNYKLVFCPQQAEDDKCGDIGISIDHDDGTRRLVVSKNKPLVVQFQKLDKESL
With B4 the “Inhibition (%) EP-2” value (medaka EP-2 protease) was 99% and the “Inhibition (%) EP-1” value (medaka EP-1 protease) was 99%.
